Publication PMC9482650, “Quantitative fragmentomics allow affinity mapping of interactomes” (Nature Communications, 2022)

Experiments:
Assay in all cases: holdup assay
Set-up in all cases: key: below the threshold = too weak to quantify, mostly under pKd 3.1 to 4
APBA2_1, Q99767 = molecular target: T1, APBA2_1, Q99767
T1 sequence (Q99767 563-664, limits assumed, looked up): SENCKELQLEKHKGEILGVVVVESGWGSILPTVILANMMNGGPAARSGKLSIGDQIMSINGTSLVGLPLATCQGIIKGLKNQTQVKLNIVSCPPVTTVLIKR

APBA3_1, O96018 = molecular target: T2, APBA3_1, O96018
T2 sequence (O96018 389-490, limits assumed, looked up): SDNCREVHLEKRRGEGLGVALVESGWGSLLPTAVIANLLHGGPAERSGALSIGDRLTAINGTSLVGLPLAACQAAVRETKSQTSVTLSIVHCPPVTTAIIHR

DFNB31_2, Q9P202 = molecular target: T3, DFNB31_2, Q9P202
T3 sequence (Q9P202 274-371, limits assumed, looked up): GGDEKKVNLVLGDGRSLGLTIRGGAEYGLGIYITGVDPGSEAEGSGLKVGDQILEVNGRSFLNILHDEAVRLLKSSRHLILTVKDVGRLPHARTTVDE

DFNB31_3, Q9P202 = molecular target: T4, DFNB31_3, Q9P202
T4 sequence (Q9P202 811-907, limits assumed, looked up): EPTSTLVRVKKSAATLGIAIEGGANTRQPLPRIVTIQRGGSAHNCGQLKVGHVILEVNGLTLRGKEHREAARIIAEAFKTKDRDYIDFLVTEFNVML

DLG3_2, Q92796 = molecular target: T5, DLG3_2, Q92796
T5 sequence (Q92796 221-321, limits assumed, looked up): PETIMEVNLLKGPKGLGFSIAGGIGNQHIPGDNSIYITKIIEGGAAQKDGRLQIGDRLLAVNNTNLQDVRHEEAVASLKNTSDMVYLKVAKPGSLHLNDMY

DLG3_3, Q92796 = molecular target: T6, DLG3_3, Q92796
T6 sequence (Q92796 374-475, limits assumed, looked up): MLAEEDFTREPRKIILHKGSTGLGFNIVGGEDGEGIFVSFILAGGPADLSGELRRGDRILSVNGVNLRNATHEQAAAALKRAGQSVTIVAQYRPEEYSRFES

DLG4_3, P78352 = molecular target: DLG4_3, P78352
GRASP, Q7Z6J2 = molecular target: GRASP, Q7Z6J2
GRIP2_5, Q9C0E4 = molecular target: GRIP2_5, Q9C0E4
HTRA1, Q92743 = molecular target: HTRA1, Q92743
HTRA3, P83110 = molecular target: T7, HTRA3, P83110
T7 sequence (P83110 354-453, limits assumed, looked up): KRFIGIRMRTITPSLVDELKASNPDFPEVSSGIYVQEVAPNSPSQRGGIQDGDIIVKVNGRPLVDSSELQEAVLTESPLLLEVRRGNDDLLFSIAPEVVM

IL16_1, Q14005 = molecular target: IL16_1, Q14005
IL16_4, Q14005 = molecular target: IL16_4, Q14005
Inadl_2, Q8NI35 = molecular target: Inadl_2, Q8NI35
Inadl_6, Q8NI35 = molecular target: Inadl_6, Q8NI35
Inadl_9, Q8NI35 = molecular target: Inadl_9, Q8NI35
LAP2, Q96RT1 = molecular target: LAP2, Q96RT1
LNX1_2, Q8TBB1 = molecular target: LNX1_2, Q8TBB1
MAGI2_4, Q86UL8 = molecular target: MAGI2_4, Q86UL8
MAST1, Q9Y2H9 = molecular target: MAST1, Q9Y2H9
MPP6, Q9NZW5 = molecular target: T8, MPP6, Q9NZW5
T8 sequence (Q9NZW5 125-219, limits assumed, looked up): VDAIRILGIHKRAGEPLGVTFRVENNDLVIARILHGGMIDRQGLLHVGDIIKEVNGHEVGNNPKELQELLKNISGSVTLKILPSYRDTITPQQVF

NHERF2_2, Q15599 = molecular target: NHERF2_2, Q15599
PARD3B_1, Q8TEW8 = molecular target: T9, PARD3B_1, Q8TEW8
T9 sequence (Q8TEW8 196-299, limits assumed, looked up): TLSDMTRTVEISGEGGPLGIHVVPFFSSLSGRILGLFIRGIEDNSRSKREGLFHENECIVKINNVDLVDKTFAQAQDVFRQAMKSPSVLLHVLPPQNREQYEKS

SCRIB_1, Q14160 = molecular target: SCRIB_1, Q14160
SNTA1, Q13424 = molecular target: T10, SNTA1, Q13424
T10 sequence (Q13424 82-180, limits assumed, looked up): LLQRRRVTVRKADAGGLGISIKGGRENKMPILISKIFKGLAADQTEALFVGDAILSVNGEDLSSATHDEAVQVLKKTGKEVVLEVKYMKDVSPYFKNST

SNTG1, Q9NSN8 = molecular target: T11, SNTG1, Q9NSN8
T11 sequence (Q9NSN8 52-150, limits assumed, looked up): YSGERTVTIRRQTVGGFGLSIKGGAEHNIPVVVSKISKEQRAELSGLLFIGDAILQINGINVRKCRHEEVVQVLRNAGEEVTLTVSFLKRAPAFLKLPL

[1] = plain residues with an end cap or a label only (N-terminal biotin on a linker: ahx)
[2] = plain residues with an end cap or a label only (N-terminal biotin on a linker: ado-ado)

Sequence of GRIP2_5, Q9C0E4 (Q9C0E4 544-642): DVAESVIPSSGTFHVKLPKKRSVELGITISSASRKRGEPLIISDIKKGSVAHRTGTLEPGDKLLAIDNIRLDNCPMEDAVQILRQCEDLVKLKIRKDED
Sequence of MAST1, Q9Y2H9 (Q9Y2H9 962-1065): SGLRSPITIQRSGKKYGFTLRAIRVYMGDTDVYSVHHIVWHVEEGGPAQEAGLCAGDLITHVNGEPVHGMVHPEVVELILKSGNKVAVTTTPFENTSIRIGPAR
Sequence of LAP2, Q96RT1 (Q96RT1 other isoform, or with tags, fused parts or gaps): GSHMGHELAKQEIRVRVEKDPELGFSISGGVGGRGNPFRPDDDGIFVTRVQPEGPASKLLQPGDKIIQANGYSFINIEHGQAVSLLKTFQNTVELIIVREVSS
Sequence of MAGI2_4, Q86UL8 (Q86UL8 772-865): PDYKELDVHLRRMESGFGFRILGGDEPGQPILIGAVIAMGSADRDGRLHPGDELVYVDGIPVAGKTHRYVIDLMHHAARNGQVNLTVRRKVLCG
Sequence of Inadl_6, Q8NI35 (Q8NI35 1058-1167): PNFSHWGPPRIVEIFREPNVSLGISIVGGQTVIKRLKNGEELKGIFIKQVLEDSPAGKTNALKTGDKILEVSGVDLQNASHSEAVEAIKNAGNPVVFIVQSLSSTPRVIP
Sequence of NHERF2_2, Q15599 (Q15599 142-238): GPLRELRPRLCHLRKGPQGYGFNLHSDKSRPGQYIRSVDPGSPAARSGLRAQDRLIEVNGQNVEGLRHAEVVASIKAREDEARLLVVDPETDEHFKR
Sequence of Inadl_2, Q8NI35 (Q8NI35 238-335): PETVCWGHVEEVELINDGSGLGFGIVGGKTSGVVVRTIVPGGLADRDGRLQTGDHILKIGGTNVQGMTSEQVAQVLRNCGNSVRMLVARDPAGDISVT
Sequence of IL16_4, Q14005 (Q14005 1229-1329): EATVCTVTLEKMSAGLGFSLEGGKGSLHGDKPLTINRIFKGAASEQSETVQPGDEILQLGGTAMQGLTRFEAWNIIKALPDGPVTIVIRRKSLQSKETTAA
Sequence of LNX1_2, Q8TBB1 (Q8TBB1 371-470): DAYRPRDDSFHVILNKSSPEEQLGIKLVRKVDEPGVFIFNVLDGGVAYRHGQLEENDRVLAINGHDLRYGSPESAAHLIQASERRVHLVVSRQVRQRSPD
Sequence of HTRA1, Q92743 (Q92743 360-477): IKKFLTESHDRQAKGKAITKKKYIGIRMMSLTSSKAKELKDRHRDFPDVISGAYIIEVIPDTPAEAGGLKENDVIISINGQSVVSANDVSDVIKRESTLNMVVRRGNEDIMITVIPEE
Sequence of Inadl_9, Q8NI35 (Q8NI35 1530-1615): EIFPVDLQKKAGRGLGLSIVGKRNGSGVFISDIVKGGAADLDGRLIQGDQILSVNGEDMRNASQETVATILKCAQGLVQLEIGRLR
Sequence of DLG4_3, P78352 (P78352 306-403): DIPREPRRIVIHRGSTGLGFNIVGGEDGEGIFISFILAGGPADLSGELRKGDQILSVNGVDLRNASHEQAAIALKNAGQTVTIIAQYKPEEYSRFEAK
Sequence of SCRIB_1, Q14160 (Q14160 718-814): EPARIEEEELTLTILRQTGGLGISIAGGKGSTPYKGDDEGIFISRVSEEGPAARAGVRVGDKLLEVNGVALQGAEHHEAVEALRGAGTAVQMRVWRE
Sequence of GRASP, Q7Z6J2 (Q7Z6J2 96-193): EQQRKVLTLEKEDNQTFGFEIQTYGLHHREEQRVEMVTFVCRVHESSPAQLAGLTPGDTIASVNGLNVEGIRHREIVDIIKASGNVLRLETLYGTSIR
Sequence of IL16_1, Q14005 (Q14005 210-306): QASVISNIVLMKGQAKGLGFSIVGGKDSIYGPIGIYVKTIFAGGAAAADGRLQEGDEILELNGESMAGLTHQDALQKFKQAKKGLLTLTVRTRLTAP

QNTDDVQTSF [ACE2, Q9BYF1]
pKd (APBA2_1, Q99767; [1]): below the threshold | pKd (APBA3_1, O96018; [1]): below the threshold | pKd (DFNB31_2, Q9P202; [1]): below the threshold | pKd (DFNB31_3, Q9P202; [1]): below the threshold | pKd (DLG3_2, Q92796; [1]): 3.76 | pKd (DLG3_3, Q92796; [1]): below the threshold | pKd (DLG4_3, P78352; [1]): below the threshold | pKd (GRASP, Q7Z6J2; [1]): 4.29 | pKd (GRIP2_5, Q9C0E4; [1]): below the threshold | pKd (HTRA1, Q92743; [1]): below the threshold | pKd (HTRA3, P83110; [1]): below the threshold | pKd (IL16_1, Q14005; [1]): below the threshold | pKd (IL16_4, Q14005; [1]): below the threshold | pKd (Inadl_2, Q8NI35; [1]): below the threshold | pKd (Inadl_6, Q8NI35; [1]): below the threshold | pKd (Inadl_9, Q8NI35; [1]): below the threshold | pKd (LAP2, Q96RT1; [1]): below the threshold | pKd (LNX1_2, Q8TBB1; [1]): below the threshold | pKd (MAGI2_4, Q86UL8; [1]): below the threshold | pKd (MAST1, Q9Y2H9; [1]): 4.6 | pKd (MPP6, Q9NZW5; [1]): below the threshold | pKd (NHERF2_2, Q15599; [1]): 4.29 | pKd (PARD3B_1, Q8TEW8; [1]): 3.82 | pKd (SCRIB_1, Q14160; [1]): below the threshold | pKd (SNTA1, Q13424; [1]): below the threshold | pKd (SNTG1, Q9NSN8; [1]): below the threshold

LPAVCYDIDI [PTTG2, Q9NZH5]
pKd (APBA2_1, Q99767; [2]): below the threshold | pKd (APBA3_1, O96018; [2]): below the threshold | pKd (DFNB31_2, Q9P202; [2]): below the threshold | pKd (DFNB31_3, Q9P202; [2]): 3.9 | pKd (DLG3_2, Q92796; [2]): 4.09 | pKd (DLG3_3, Q92796; [2]): below the threshold | pKd (DLG4_3, P78352; [2]): below the threshold | pKd (GRASP, Q7Z6J2; [2]): below the threshold | pKd (GRIP2_5, Q9C0E4; [2]): below the threshold | pKd (HTRA1, Q92743; [2]): 3.9 | pKd (HTRA3, P83110; [2]): 3.6 | pKd (IL16_1, Q14005; [2]): below the threshold | pKd (IL16_4, Q14005; [2]): below the threshold | pKd (Inadl_2, Q8NI35; [2]): below the threshold | pKd (Inadl_6, Q8NI35; [2]): below the threshold | pKd (Inadl_9, Q8NI35; [2]): below the threshold | pKd (LAP2, Q96RT1; [2]): below the threshold | pKd (LNX1_2, Q8TBB1; [2]): below the threshold | pKd (MAGI2_4, Q86UL8; [2]): 3.67 | pKd (MAST1, Q9Y2H9; [2]): 4.08 | pKd (MPP6, Q9NZW5; [2]): 3.54 | pKd (NHERF2_2, Q15599; [2]): below the threshold | pKd (PARD3B_1, Q8TEW8; [2]): below the threshold | pKd (SCRIB_1, Q14160; [2]): below the threshold | pKd (SNTA1, Q13424; [2]): below the threshold | pKd (SNTG1, Q9NSN8; [2]): 3.64
